Publication PMC3493480

What was measured:
[1] = molecular target: bromodomain protein 4 (Brd4), endogenous (human (endogenous in C33A and 293T)) (UniProt O60885)
[2] = molecular target: bromodomain protein 4 (Brd4), endogenous (human (endogenous in C33A and 293T)) (UniProt O60885); assay: co-IP; nuclear extracts of transfected C33A or 293T cells IPed with polyclonal Brd4 antibody (NA or CA) or normal rabbit IgG, immunoblot; immuno-complexes unchanged at 300 mM NaCl, only slightly dissociated at 500 and 1000 mM
[3] = molecular target: bromodomain protein 4 (Brd4), endogenous (human (endogenous in C33A and 293T)) (UniProt O60885); remark: listed apart in the source

| Substance | replication of the MCV genome (LT expressed from the viral genome) in 293T cells co-transfected with 0, 7 or 9 µg pcDNA4C-Brd4 471-730, DpnI-resistant DNA by Southern blotting at 24 h: inhibition [1] [%] | percent of the MCV LT co-immunoprecipitated [2] [%] | MCV episome copy number by qPCR in 293-4T cells (stably expressing MCV LT and sT) super-transfected with the Brd4 471-730 DNI construct, 24 h to 4 days: reduction (∼60% within the first 24 h) [3] [%] |
| --- | --- | --- | --- |
| MCV large T antigen (LT) expressed from pADL* (natural protein) | 92 | 20 | 94 |
| MCV large T antigen (LT), Xpress-tagged, from pcDNA4C-MCV LT (natural protein) |  | 40 |  |
